# Source: the supplement of paper PMC7877785
# ± gives the uncertainty stated by the source.
# Experiment: self-splicing fitness, log relative to wild type (ln ratio); higher = more splicing; Tetrahymena group I intron in knt gene, E. coli kanamycin selection, DiMSum; sequences stand for … in CUCUCU…GGAGGGAAAAGUUAUCAGGCAUGCACCUGGUAGCUAGUCUUUAAACCAAUAGAUUGCAUCGGUUUAAAAGGCAAGACCGUCAAAUUGCGGGAAAGGGGUCAACAGCCGUUCAGUACCAAGUCUCAGGGGAAACUUUGAGAUGGCCUUGCAAAGGGUAUGGUAAUAAGCUGACGGACAUGGUCCUAACCACGCAGCCAAGUCCUAAGUCAACAGAUCUUCUGUUGAUAUGGAUGCAGUUCACAGACUAAAUGUCGGUCGGGGAAGAUGUAUUCUUCUCAUAAGAUAUAGUCGGACCUCUCCUUAAUGGGAGCUAGCGGAUGAAGUGAUGCAACACUGGAGCCGCUGGGAACUAAUUUGUAUGCGAAAGUAUAUUGAUUAGUUUUGGAGUACUCGUGGUCG
# Method in brief: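 Fitness was computed with DiMSum as the error-weighted combination of replicate fold changes, kanamycin versus none, each normalised to wild type. The library randomised all eight intron nucleotides of the P1ex region, with the intron placed in the knt kanamycin-resistance gene on pET-22b(+) in E. coli BL21(DE3). Six replicate transformations were grown overnight at 37°C or 30°C on LB agar with or without 25 μg/mL kanamycin, plus 100 μg/mL carbenicillin, 50 μM IPTG and 0.2% rhamnose. Pooled colonies were amplicon-sequenced on an Illumina HiSeq 2500.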
Sequence,self-splicing fitness (ln) (30 °C),self-splicing fitness (ln) (37 °C)
AAGUAGCAAUAUUACGCUCG,-0.592 ± 0.13,-0.234 ± 0.17
UACAAGCAAUAUUACGCGUG,-2.09 ± 0.11,-1.37 ± 0.098
GCCAAGCAAUAUUACGACUG,-4.32 ± 0.23,-1.94 ± 0.15
ACAGAGCAAUAUUACGAUAC,-1.87 ± 0.35,
AGAUAGCAAUAUUACGCGAC,-2.67 ± 0.29,-1.21 ± 0.39
AGGUAGCAAUAUUACGAAAC,-3.37 ± 0.035,-1.85 ± 0.042
GUGGAGCAAUAUUACGUUCA,-1.02 ± 0.11,-0.668 ± 0.11
GUGGAGCAAUAUUACGCUAA,-2.72 ± 0.25,-1.6 ± 0.19
CAGUAGCAAUAUUACGCCCA,-2.16 ± 0.26,-0.476 ± 0.45
GAUCAGCAAUAUUACGGUUU,-0.544 ± 0.074,-0.154 ± 0.098
UCUGAGCAAUAUUACGUCCA,-2.33 ± 0.3,-1.68 ± 0.38
ACCCAGCAAUAUUACGGUUC,-2.22 ± 0.072,-1.32 ± 0.094
ACUUAGCAAUAUUACGUCCC,-0.637 ± 0.21,-0.072 ± 0.25
GAGGAGCAAUAUUACGUUAU,-3.32 ± 0.23,-2.96 ± 0.32
CAGAAGCAAUAUUACGACGC,-3 ± 0.14,-1.28 ± 0.12
UCCCAGCAAUAUUACGUCCC,-3.08 ± 0.25,-0.845 ± 0.26
CAGGAGCAAUAUUACGGUCG,0.425 ± 0.084,0.544 ± 0.12
UCAUAGCAAUAUUACGUCAG,-2.96 ± 0.18,-1.36 ± 0.15
UUAGAGCAAUAUUACGUAUG,-1.6 ± 0.085,-1.31 ± 0.12
AAUUAGCAAUAUUACGCUUU,-3.27 ± 0.23,-1.01 ± 0.14
CAGUAGCAAUAUUACGUCUA,-0.56 ± 0.064,-0.256 ± 0.071

Sequence,self-splicing fitness (ln) (30 °C),self-splicing fitness (ln) (37 °C)
CUAAAGCAAUAUUACGCCCC,-1.15 ± 0.45,
CCCAAGCAAUAUUACGUGCA,-3.83 ± 0.23,-2.57 ± 0.16
CCUGAGCAAUAUUACGUCUC,,-3.42 ± 0.37
AUGGAGCAAUAUUACGACGC,-1.44 ± 0.16,-0.789 ± 0.19
UCUUAGCAAUAUUACGUCAU,-1.86 ± 0.32,
CGGCAGCAAUAUUACGCUGU,-3.8 ± 0.14,-2.29 ± 0.15
CUGGAGCAAUAUUACGAUAG,-2.16 ± 0.25,-1.38 ± 0.22
CGGGAGCAAUAUUACGUUUC,-3.92 ± 0.46,
GUCUAGCAAUAUUACGCCUA,-0.955 ± 0.31,-0.323 ± 0.27
UGCCAGCAAUAUUACGGGGA,-1.8 ± 0.087,-0.863 ± 0.11
UGCUAGCAAUAUUACGAUUC,,-2.33 ± 0.49
GGGAAGCAAUAUUACGAAAG,,-2.48 ± 0.41
GCUCAGCAAUAUUACGAAUU,-1.04 ± 0.064,0.155 ± 0.087
CCAUAGCAAUAUUACGUUAC,-2.14 ± 0.17,-3.54 ± 0.47
UAGUAGCAAUAUUACGAGUA,-1.44 ± 0.11,-0.61 ± 0.084
GGCGAGCAAUAUUACGAAUC,-1.03 ± 0.051,-0.145 ± 0.067
CUAAAGCAAUAUUACGAACA,-2.48 ± 0.12,-2.03 ± 0.2
UCGAAGCAAUAUUACGCGGU,-2.73 ± 0.3,-2.48 ± 0.36
GUGCAGCAAUAUUACGUAGC,-1.44 ± 0.17,-0.976 ± 0.16
ACCAAGCAAUAUUACGACUU,-3.83 ± 0.19,-1.85 ± 0.12
AUCUAGCAAUAUUACGCUCC,-0.7 ± 0.18,-0.736 ± 0.25

Sequence,self-splicing fitness (ln) (30 °C),self-splicing fitness (ln) (37 °C)
UCUAAGCAAUAUUACGACAU,-3.444 ± 0.025,-2.23 ± 0.037
GAAGAGCAAUAUUACGUUAA,-2.65 ± 0.22,-1.65 ± 0.2
UAGCAGCAAUAUUACGGAUA,-0.783 ± 0.081,-0.203 ± 0.1
AGCUAGCAAUAUUACGUCCU,-0.19 ± 0.083,0.188 ± 0.11
CUACAGCAAUAUUACGGUCG,-0.256 ± 0.068,0.417 ± 0.082
CAGCAGCAAUAUUACGCACC,-2.66 ± 0.29,-1.32 ± 0.47
CAGGAGCAAUAUUACGAGUU,-3.36 ± 0.43,
AGGAAGCAAUAUUACGUCUU,-2.07 ± 0.062,-1.59 ± 0.08
GAUCAGCAAUAUUACGUACA,-0.607 ± 0.12,0.177 ± 0.15
AUCUAGCAAUAUUACGCGUU,-1.76 ± 0.096,-0.994 ± 0.1
GCCCAGCAAUAUUACGUGCU,-3.14 ± 0.16,-2.88 ± 0.21
CAGGAGCAAUAUUACGGUUC,-2.71 ± 0.43,-1.74 ± 0.28
UAAGAGCAAUAUUACGAAGU,-3.61 ± 0.31,-1.85 ± 0.41
GCGUAGCAAUAUUACGCCCG,,0.544 ± 0.44
GGUCAGCAAUAUUACGCACA,-0.667 ± 0.082,0.412 ± 0.12
UAAAAGCAAUAUUACGGUUA,0.139 ± 0.067,0.222 ± 0.079
UAAAAGCAAUAUUACGGAGG,-2.7 ± 0.17,-2.07 ± 0.16
GUCUAGCAAUAUUACGCCGC,-3.25 ± 0.38,
GCAGAGCAAUAUUACGAUGA,-1.42 ± 0.14,-1.07 ± 0.12
CUUUAGCAAUAUUACGUCCG,-0.0797 ± 0.084,-0.326 ± 0.099
ACGUAGCAAUAUUACGUUGA,-3.4 ± 0.29,-2.78 ± 0.28
